Test results published in patent US20120245104A1, “NOVEL RETRO-INVERSO LEPTIN PEPTIDE ANTAGONISTS” (priority 2011, published 2012).
Where no end group is shown, it is not given here.

T1: leptin receptor (ObR) (UniProt P48357 22-1165, limits assumed)
T1 sequence (looked up): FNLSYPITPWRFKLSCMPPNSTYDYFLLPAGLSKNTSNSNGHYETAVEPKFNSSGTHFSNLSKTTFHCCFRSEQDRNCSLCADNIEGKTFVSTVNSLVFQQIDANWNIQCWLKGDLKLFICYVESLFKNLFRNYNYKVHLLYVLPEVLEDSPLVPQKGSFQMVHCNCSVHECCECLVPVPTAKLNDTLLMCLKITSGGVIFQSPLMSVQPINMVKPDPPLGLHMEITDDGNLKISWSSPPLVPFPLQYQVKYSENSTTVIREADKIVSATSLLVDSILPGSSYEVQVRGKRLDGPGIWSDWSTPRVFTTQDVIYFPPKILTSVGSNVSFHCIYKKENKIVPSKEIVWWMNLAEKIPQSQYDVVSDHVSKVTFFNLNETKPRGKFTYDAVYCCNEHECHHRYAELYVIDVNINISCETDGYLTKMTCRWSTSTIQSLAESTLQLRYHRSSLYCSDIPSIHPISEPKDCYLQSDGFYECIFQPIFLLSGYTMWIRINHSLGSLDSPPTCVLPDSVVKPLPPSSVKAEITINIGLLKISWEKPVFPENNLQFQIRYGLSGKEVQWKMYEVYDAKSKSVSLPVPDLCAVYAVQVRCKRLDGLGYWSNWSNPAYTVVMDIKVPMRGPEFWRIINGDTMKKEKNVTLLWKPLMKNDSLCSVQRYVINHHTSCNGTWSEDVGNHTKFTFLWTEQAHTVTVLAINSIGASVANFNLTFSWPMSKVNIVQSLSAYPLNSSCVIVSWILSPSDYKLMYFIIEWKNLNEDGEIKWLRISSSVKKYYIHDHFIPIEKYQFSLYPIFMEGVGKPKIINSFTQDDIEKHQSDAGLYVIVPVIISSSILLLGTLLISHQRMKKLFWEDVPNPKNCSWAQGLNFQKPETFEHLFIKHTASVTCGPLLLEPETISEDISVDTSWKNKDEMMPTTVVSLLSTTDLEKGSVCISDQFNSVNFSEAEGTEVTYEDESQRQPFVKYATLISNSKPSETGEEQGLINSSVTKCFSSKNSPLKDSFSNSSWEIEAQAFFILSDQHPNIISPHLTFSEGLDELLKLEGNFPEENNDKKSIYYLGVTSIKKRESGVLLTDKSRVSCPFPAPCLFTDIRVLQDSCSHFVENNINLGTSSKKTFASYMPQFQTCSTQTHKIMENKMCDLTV


Target: T1, leptin receptor (ObR)
Assay: cell-based or functional assay

Row | IC50 (half maximal inhibitory concentration), inhibition of leptin-induced cell growth | Binder
1 | 0.033 µM | SRNVIQISNDLENLRDLLHVLAFSKS-NH2 [Full-length LPA-2 (70-95)]
2 | 0.032 µM | NVIQISNDLENLRDLLHV-NH2 [Truncated LPA-2 (72-89), D79 (original amino acid)]
3 | 0.0257 µM | VQDDTKTLIKTIVTRINDI-NH2 [Truncated LPA-1 (6-24), T10 (original amino acid)]

Target: T1, leptin receptor (ObR)
Assay: cell-based or functional assay
Remark: another data set of the same source

Row | IC50, inhibition of leptin-induced growth of MCF-7 cells | Binder
4 | 0.033 µM | SRNVIQISNDLENLRDLLHVLAFSKS-NH2 [Full-length LPA-2 (70-95)]
5 | 0.032 µM | NVIQISNDLENLRDLLHV-NH2 [Truncated LPA-2 (72-89), D79 (original amino acid)]
6 | 0.0257 µM | VQDDTKTLIKTIVTRINDI-NH2 [Truncated LPA-1 (6-24), T10 (original amino acid)]
